As a reminder, the pKd is the negative decadic logarithm of the Kd, by convention in mol/L.

The values below come from article PMC9482650, “Quantitative fragmentomics allow affinity mapping of interactomes” (Nature Communications, 2022).

What all share (assay): holdup assay
Common to all, as to set-up: key: below the threshold = too weak to quantify, mostly under pKd 3.1 to 4

The target in experiment [1] is T1, APBA3_2, O96018.
T1 sequence (O96018 480-570, limits assumed, looked up): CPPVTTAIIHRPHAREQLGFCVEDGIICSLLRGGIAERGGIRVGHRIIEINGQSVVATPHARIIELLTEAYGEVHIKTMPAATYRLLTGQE

Experiment [2] addresses IL16_2, Q14005.
Experiment [3] addresses T2, INTU, Q9ULD6.
T2 sequence (Q9ULD6 180-273, limits assumed, looked up): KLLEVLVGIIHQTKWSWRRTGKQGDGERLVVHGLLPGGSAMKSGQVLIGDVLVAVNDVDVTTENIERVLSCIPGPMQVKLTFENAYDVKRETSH

Experiment [4] has as its target T3, LNX2_1, Q8N448.
T3 sequence (Q8N448 228-328, limits assumed, looked up): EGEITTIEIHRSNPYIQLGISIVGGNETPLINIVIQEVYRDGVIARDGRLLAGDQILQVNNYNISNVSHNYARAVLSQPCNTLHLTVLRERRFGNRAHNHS

Experiment [5] addresses MAGI1_3, Q96QZ7.
The target of experiment [6] is MAGI1_5, Q96QZ7.
Sequence of MAGI1_5, Q96QZ7 (Q96QZ7 986-1098): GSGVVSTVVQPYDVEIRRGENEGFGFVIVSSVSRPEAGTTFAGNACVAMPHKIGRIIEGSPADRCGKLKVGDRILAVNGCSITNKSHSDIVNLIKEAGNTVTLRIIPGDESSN
Experiment [7] has as its target MAGI3_3, Q5TCQ9.
Experiment [8] concerns the target MAGI3_4, Q5TCQ9.
For experiment [9], the target named is MAGI3_6, Q5TCQ9.
Sequence of MAGI3_6, Q5TCQ9 (Q5TCQ9 1014-1103): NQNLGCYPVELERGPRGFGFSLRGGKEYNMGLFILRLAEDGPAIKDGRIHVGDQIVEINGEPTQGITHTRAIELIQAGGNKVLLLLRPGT
Experiment [10] has as its target T4, MPP1, Q00013.
T4 sequence (Q00013 66-162, limits assumed, looked up): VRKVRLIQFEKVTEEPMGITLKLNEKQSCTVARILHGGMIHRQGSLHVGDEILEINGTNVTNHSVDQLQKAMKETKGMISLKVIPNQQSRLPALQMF

Experiment [11] addresses T5, MPP5, Q8N3R9.
T5 sequence (Q8N3R9 251-346, limits assumed, looked up): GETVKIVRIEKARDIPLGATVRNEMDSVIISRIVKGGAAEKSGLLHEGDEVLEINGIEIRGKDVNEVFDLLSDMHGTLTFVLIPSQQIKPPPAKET

The target in experiment [12] is T6, NHERF1_2, O14745.
T6 sequence (O14745 149-244, limits assumed, looked up): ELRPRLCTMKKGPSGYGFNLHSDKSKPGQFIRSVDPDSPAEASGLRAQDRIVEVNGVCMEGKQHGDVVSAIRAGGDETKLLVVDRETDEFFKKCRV

In experiment [13] the target is T7, PDLIM3, Q53GG5.
T7 sequence (Q53GG5 1-94, limits assumed, looked up): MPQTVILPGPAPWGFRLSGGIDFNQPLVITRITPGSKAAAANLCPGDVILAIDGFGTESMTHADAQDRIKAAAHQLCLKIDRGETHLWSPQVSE

Experiment [14] concerns the target T8, PDZD11, Q5EBL8.
T8 sequence (Q5EBL8 42-139, limits assumed, looked up): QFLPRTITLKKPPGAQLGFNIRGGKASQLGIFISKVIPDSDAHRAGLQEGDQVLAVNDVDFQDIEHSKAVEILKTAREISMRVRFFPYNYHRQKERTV

In experiment [15] the target is T9, PDZD7_1, Q9H5P4.
T9 sequence (Q9H5P4 81-178, limits assumed, looked up): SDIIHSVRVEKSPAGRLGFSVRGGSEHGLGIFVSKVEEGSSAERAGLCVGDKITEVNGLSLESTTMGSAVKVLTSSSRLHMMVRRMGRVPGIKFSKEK

For experiment [16], the target named is T10, PDZD8, Q8NEN9.
T10 sequence (Q8NEN9 361-459, limits assumed, looked up): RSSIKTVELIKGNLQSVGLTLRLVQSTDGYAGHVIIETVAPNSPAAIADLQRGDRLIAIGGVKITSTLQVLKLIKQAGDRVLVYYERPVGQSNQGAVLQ

Experiment [17] has as its target T11, PREX2_2, Q70Z35.
T11 sequence (Q70Z35 672-764, limits assumed, looked up): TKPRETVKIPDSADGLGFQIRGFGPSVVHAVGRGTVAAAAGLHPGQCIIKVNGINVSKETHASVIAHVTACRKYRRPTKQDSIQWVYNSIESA

In experiment [18] the target is PTPN13_2, Q12923.
Sequence of PTPN13_2, Q12923 (Q12923 1363-1462): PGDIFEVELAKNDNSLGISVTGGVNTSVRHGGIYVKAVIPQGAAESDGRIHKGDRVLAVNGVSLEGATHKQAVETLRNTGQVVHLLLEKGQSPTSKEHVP
The target in experiment [19] is T12, PTPN4, P29074.
T12 sequence (P29074 512-599, limits assumed, looked up): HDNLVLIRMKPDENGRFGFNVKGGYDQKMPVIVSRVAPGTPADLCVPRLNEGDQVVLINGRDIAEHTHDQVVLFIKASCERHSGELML

Experiment [20] deals with T13, RGS12, O14924.
T13 sequence (O14924 17-108, limits assumed, looked up): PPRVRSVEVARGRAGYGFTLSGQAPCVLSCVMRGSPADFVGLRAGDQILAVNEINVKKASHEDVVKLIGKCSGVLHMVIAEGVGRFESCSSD

The target of experiment [21] is RGS3, P49796-9.
Sequence of RGS3, P49796-9 (P49796 other isoform, or with tags, fused parts or gaps): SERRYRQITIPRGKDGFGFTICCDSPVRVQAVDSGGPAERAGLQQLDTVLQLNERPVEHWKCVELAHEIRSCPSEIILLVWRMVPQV
For experiment [22], the target named is T14, SHROOM2, Q13796.
T14 sequence (Q13796 21-118, limits assumed, looked up): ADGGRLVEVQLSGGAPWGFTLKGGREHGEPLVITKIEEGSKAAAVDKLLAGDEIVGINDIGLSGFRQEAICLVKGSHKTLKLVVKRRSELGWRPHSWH

Experiment [23] addresses T15, SHROOM4, Q9ULL8.
T15 sequence (Q9ULL8 5-102, limits assumed, looked up): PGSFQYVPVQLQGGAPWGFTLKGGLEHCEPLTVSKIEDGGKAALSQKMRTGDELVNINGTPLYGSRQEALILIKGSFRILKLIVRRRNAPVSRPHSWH

Where [24] appears, read: modified: acetyl on K at position -1 from the C-terminal residue.
The mark [25] stands for this setting: modified: phospho on S at position -3 from the C-terminal residue.
The mark [26] stands for this setting: plain residues with an end cap or a label only (N-terminal biotin on a linker: (peg)3).

Sequence of IL16_2, Q14005 (Q14005 350-450): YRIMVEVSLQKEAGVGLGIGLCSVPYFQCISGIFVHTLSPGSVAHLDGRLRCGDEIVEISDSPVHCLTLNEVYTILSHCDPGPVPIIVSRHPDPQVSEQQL
Sequence of MAGI3_3, Q5TCQ9 (Q5TCQ9 572-655): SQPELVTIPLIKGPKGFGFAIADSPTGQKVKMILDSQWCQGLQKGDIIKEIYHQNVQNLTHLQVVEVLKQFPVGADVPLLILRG
Sequence of MAGI3_4, Q5TCQ9 (Q5TCQ9 716-815): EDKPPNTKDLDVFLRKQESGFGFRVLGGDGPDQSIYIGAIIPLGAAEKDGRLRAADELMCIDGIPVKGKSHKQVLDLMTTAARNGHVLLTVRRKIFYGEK
Sequence of MAGI1_3, Q96QZ7 (Q96QZ7 638-725): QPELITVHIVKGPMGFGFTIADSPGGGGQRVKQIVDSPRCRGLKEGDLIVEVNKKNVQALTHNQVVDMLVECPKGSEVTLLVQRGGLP

Turning to DEDQHTQITKV [PTEN_Ac, P60484], the pKd entry is “below the threshold” in experiment [1] (setting [24]); “below the threshold” in experiment [2] (setting [24]); “below the threshold” in [3] (setting [24]); “below the threshold” in [4] (setting [24]); 4.98 in experiment [5] (setting [24]); 4.84 in experiment [6] (setting [24]). For the same molecule, the pKd entry in experiment [7] (setting [24]) was “below the threshold”; in [8] (setting [24]), “below the threshold”; in [9] (setting [24]) it was 4.08; in experiment [10] (setting [24]), “below the threshold”; in experiment [11] (setting [24]) it was “below the threshold”; in experiment [12] (setting [24]), “below the threshold”. In addition, the pKd entry in experiment [13] (setting [24]), in experiment [14] (setting [24]), in experiment [15] (setting [24]), in [16] (setting [24]), in experiment [17] (setting [24]) and in experiment [18] (setting [24]) was “below the threshold” each time. The negative logarithm of the Kd (pKd) entry in [19] (setting [24]), in experiment [20] (setting [24]), in experiment [21] (setting [24]), in experiment [22] (setting [24]) and in experiment [23] (setting [24]) was “below the threshold” each time.
Regarding RRVRKLPSTTL [RPS6KA1_-3P, Q15418], the negative-log Kd (pKd) entry in experiment [1] (setting [25]), in experiment [2] (setting [25]), in experiment [3] (setting [25]), in experiment [4] (setting [25]), in experiment [5] (setting [25]) and in experiment [6] (setting [25]) was “below the threshold” throughout. In addition, the negative-log Kd (pKd) result in experiment [7] (setting [25]), in experiment [8] (setting [25]), in experiment [9] (setting [25]), in experiment [10] (setting [25]), in [11] (setting [25]) and in experiment [12] (setting [25]) was “below the threshold” throughout. Further, the pKd entry in experiment [13] (setting [25]), in [14] (setting [25]), in [15] (setting [25]), in experiment [16] (setting [25]), in experiment [17] (setting [25]) and in experiment [18] (setting [25]) was “below the threshold” in each case. The pKd in [19] (setting [25]) was 3.54; in [20] (setting [25]) it was “below the threshold”; in experiment [21] (setting [25]), “below the threshold”; in experiment [22] (setting [25]) it was 3.71; in [23] (setting [25]), “below the threshold”.
As for YDEPTTTTSVPL [SARS-Cov2-3a, P0DTC3], the pKd entry was “below the threshold” in experiment [1] (setting [26]); “below the threshold” in experiment [2] (setting [26]); 3.86 in [3] (setting [26]); “below the threshold” in experiment [4] (setting [26]); “below the threshold” in experiment [5] (setting [26]); 3.76 in experiment [6] (setting [26]). For the same molecule, the pKd result in [7] (setting [26]), in experiment [8] (setting [26]), in [9] (setting [26]), in experiment [10] (setting [26]), in experiment [11] (setting [26]) and in experiment [12] (setting [26]) was “below the threshold” throughout. In addition, the pKd entry in experiment [13] (setting [26]), in experiment [14] (setting [26]), in experiment [15] (setting [26]), in [16] (setting [26]), in experiment [17] (setting [26]) and in experiment [18] (setting [26]) was “below the threshold” in each case. For the same molecule, the pKd result is “below the threshold” in experiment [19] (setting [26]); “below the threshold” in [20] (setting [26]); 4.19 in [21] (setting [26]); 3.81 in experiment [22] (setting [26]); “below the threshold” in experiment [23] (setting [26]).
